Measured values: the DeepSol protein solubility set

experiment: soluble on expression in E. coli; label from the status in PepcDB or PDB records

Question: For “MAEKFKIIMTEALSLYIWGCNILNTEKLETLLGFYKQYKALSEYIDKKYKLSLNDLAVLDLTMKHCKDEKVLMQSFLKTAMDELDLSRTKLLVSIRRLIEKERLSKVRSSKDERKIYIYLNNDDISKFNALFEDVEQFLNI”, which “soluble on expression in E. coli” value is on record?
Answer: not soluble

Question: For “MDKEIKICPRCEQGYLYHAKPKYFSGEVILCDECYAMWLGDMKIFYGQYGKDFYDYHEFMKDKGIEEINMWEGELFDHPYYEDEKFK”, which “soluble on expression in E. coli” value is on record?
Answer: not soluble

Question: For “MLIKVKTLTGKEIEIDIEPTDTIDRIKERVEEKEGIPPVQQRLIYAGKQLADDKTAKDYNIEGGSVLHLVLALRGG”, which “soluble on expression in E. coli” value is on record?
Answer: soluble

Question: For “MKIAIVTDSTAYLPERIKDHPNLFVIPIPVILDGKIYNEGIDIEADEYYALLNNSKEFPTTSQPALGEVLELYKSIAEQGYDTIISIHLSSGISGFVHTLHGLTDEIPGVALYPYDSKITSMPMGHMVEAALDLTEEKASLEEIFAKLDLIRDNTYAYLIVEDLNNLVRGGRLTNGAALIAGLLKIKPILTFEDGKIVLFEKIRSTKKAFARAEKIIGERNAGIEAPVKLYVIHANNRIVAEKEQAKLQKLYPNAEIEIGHFGPVIGTHLGEKAIGLAISAQ”, which “soluble on expression in E. coli” value is on record?
Answer: not soluble

Question: For “MSFVNVDPFGMLAAAATLESLGSHMAVSNAAVASVTTKVPPPAADYVSKKLSLFFSSHGQQYQVQAARGTAFHRKLVRTLANGALAYEEVEIANNEGF”, which “soluble on expression in E. coli” value is on record?
Answer: not soluble

Question: Which “soluble on expression in E. coli” value does the source give for “MVRKVNIIKGNEGQGKRIKFVQLIFVDINGMPKGMEVPITRLEEAIEEGIAFDGSSVPGFQGIEDSDLVFKADPSTYVEVPWDNVARVYGYIYKDGKPYEADPRGVLRRTLERLEKLGIKVYIGPEPEFYLFKKNGSWELEIPDVGGYFDILTLDKAKDIKREIAEYMPYFGLTPEVLHHEVGKAQHEIDFRHDEALKTADNIVSFKYIVKAVAEMHGLYATFMPKPIYGMPGNGMHLHISLWKDGENIFKGEEGLSETALYFIGGLLKHAKALAAVTNPTVNSYKRLVPGYEAPVYISWGYKNRSALIRVPAFWGNGARIEYRCPDPSANSYLAFAAILMAGLDGIKHKIEPFAYVEENVYEMDEKRREEIGIDMLPENLGEALDELERDKVVKEALGGAYRNFVGYKRKEWEEYLDYLEAKNLPKDTKNVTEWELERYFFI” here?
Answer: soluble

Question: With “SLKIKNILLSGGSGKRLWPLSRSLYPKQFLKLFDHKSLFELSFKRNASLVDETLIVCNEKHYFLALEEIKNEIKNKSVGFLLESLSKNTANAIALSALMSDKEDLLIVTPSDHLIKDLQAYENAIKKAIDLAQKGFLVTFGVSIDKPNTEFGYIESPNGLDVKRFIEKPSLDKAIEFQKSGGFYFNSGMFVFQAGVFLDELKKHAPTILKGCERAFESLENAYFFEKKIARLSEKSMQDLEDMSIDIALMQQSHKIKMVELNAKWSDLGNFNALFEEAANEPKENVSLNQTPVFAKESENNLVFSHKVSALLGVENLAVIDTKDALLIAHKDKAKDLKALVNEVETNN” as the sequence, how does the “soluble on expression in E. coli” value read?
Answer: soluble

Question: With “MQPYTAPSEIALRQLDYFADKHVLVAGEVEDRFPIELRQYCASVSVFTTHYGYYSQLKAYPEITRYFGEQLTADLNADLILLYWPKAKQEAEYLLAMLLAKLGTGTEIVVVGENRSGVKSIEKMFAAYGPIHKYDSARRCSFYWGHCVHTPAAFDIEQWFKSYAVDYQGHELTIRSLPGVFSHGEFDLGSRLLLDTLPPLSGKVIDIGSGAGVLGCVMAKLNPHIELEMTDISALAIRSSQETLVANQLHGHVYPSDMFSDTGHHYNYIVTNPPFHSGLETSYSATERLLAESVDHLASGGSIWVVANSFLKYPPILEQAFGHCDIAAKTNKFAIYHAKK” as the sequence, how does the “soluble on expression in E. coli” value read?
Answer: not soluble

Question: Which “soluble on expression in E. coli” value does the source give for “MVEQIKDKLGRPIRDLRLSVTDRCNFRCDYCMPKEVFGDDFVFLPKNELLTFDEMARIAKVYAELGVKKIRITGGEPLMRRDLDVLIAKLNQIDGIEDIGLTTNGLLLKKHGQKLYDAGLRRINVSLDAIDDTLFQSINNRNIKATTILEQIDYATSIGLNVKVNVVIQKGINDDQIIPMLEYFKDKHIEIRFIEFMDVGNDNGWDFSKVVTKDEMLTMIEQHFEIDPVEPKYFGEVAKYYRHKDNGVQFGLITSVSQSFCSTCTRARLSSDGKFYGCLFATVDGFNVKAFIRSGVTDEELKEQFKALWQIRDDRYSDERTAQTVANRQRKKINMNYIGG” here?
Answer: soluble

Question: For “GSQEEDLPRPSISAEPGTVIPLGSHVTFVCRGPVGVQTFRLERESRSTYNDTEDVSQASPSESEARFRIDSVSEGNAGPYRCIYYKPPKWSEQSDYLELLVKEAAA”, which “soluble on expression in E. coli” value is on record?
Answer: soluble

Question: For “MGSDKIHHHHHHMSGHKCYPWDLQDRYAQDKSVVNKMQQKYWETKQAFIKATGKKEDEHVVASDADLDAKLELFHSIQRTCLDLSKAIVLYQKRICFLSQEENELGKFLRSQGFQDKTRAGKMMQATGKALCFSSQQRLALRNPLCRFHQEVETFRHRAISDTWLTVNRMEQCRTEYRGALLWMKDVSQELDPDLYKQMEKFRKVQTQVRLAKKNFDKLKMDVCQKVDLLGASRCNLLSHMLATYQTTLLHFWEKTSHTMAAIHESFKGYQPYEFTTLKSLQDPMKKLVEKEEKKKINQQESTDAAVQEPSQLISLEEENQRKESSSFKTEDGKSILSALDKGSTHTACSGPIDELLDMKSEEGACLGPVAGTPEPEGADKDDLLLLSEIFNASSLEEGEFSKEWAAVFGDGQVKEPVPTMALGEPDPKAQTGSGFLPSQLLDQNMKDLQASLQEPAKAASDLTAWFSLFADLDPLSNPDAVGKTDKEHELLNA”, which “soluble on expression in E. coli” value is on record?
Answer: not soluble

Question: With “MMLPKEIMMPNDNPYALHRVKVLKVYSLTETEKLFLFRFEDPELAEKWTFKPGQFVQLTIPGVGEVPISICSSPMRKGFFELCIRKAGRVTTVVHRLKPGDTVLVRGPYGNGFPVDEWEGMDLLLIAAGLGTAPLRSVFLYAMDNRWKYGNITFINTARYGKDLLFYKELEAMKDLAEAENVKIIQSVTRDPNWPGLKGRPQQFIVEANTNPKNTAVAICGPPRMYKSVFEALINYGYRPENIFVTLERRMKCGIGKCGHCNVGTSTSWKYICKDGPVFTYFDIVSTPGLLD” as the sequence, how does the “soluble on expression in E. coli” value read?
Answer: not soluble

Question: With “MGSDKIHHHHHHMEQKICVIGFSGGQDSTTLAVWAKKRFKKVCLVGFDYAQKHSVELECAQKIASLLQLPYEIIPLDFLENITRSALFKNSNDLIGHSHAQNKDLPNSFVPNRNAIFITLLHSYAQKLGASNIALGVSQADFSGYPDCKEDFIKSIEHALNLGSNTAIKILTPLMFLNKAQEFQMAKDLGVLDLVIKETHTCYQGERKILHAYGYGCDKCPACQLRKKGFEEFQANKK” as the sequence, how does the “soluble on expression in E. coli” value read?
Answer: not soluble

Question: For “MRAELWQEQRLQLSLTKELVQAIELLQYSAADLEAFLYEQSLENPFLEIRRTRVRQRPSRTERDQKQWLENIGARAETLVGHLLSQLPALKLGDREERIVRYLIASLDEDGYLRVPLAELAARFSASEQEMERGLRLVQSLDPPGVGARDLAECLLLQLERLPERDELAETIVRYHFVPFAEKSWKTLAKQLGVSLGELQRVFELIRTLEPRPGIHYSSETLPLVVPDVIVTRGADGDWMAAYNDDIHPELGWNRDYERRIAASGDRHAEQFIKEKYRQFTWLAKSLEQRKQTLLHLMAVIIDRQRSCLEFGLSALKPMTMREVAEELGVHESTVSRAVRHKYVQTPFGTVELRRFFSNAATAAGDEAASSAHVKAIMEALISEEDRRAPLSDQQLADLLRDRYGIAISRRTVAKYREQLRIPSSAKRRQYIGLP”, which “soluble on expression in E. coli” value is on record?
Answer: not soluble

Question: With “MEELIKKAKEYDIDINDLIIDAISRKDPKEAINLRIELAKKYITETEDYLKKGDAVQASEKAYKTAEEIVKALAEKFNIPEYQQALKEGRWYTYWLASAVNRLAKDLGDWVLNGWNSAYILHVWGFHEAKLSTADISEHLRKVKEMLDNVINIIGKLEHHHHHH” as the sequence, how does the “soluble on expression in E. coli” value read?
Answer: soluble

Question: With “MAHHHHHHMDAKLEARMASVWEVVSSRHAVEATDLSLIQNVTRALAAMHERVEQQHAELTRWHRQNYKLMCTMVVHVNWREEDHRQLRDELVNVRQQLGRVAVRGDVPLLRPRNGG” as the sequence, how does the “soluble on expression in E. coli” value read?
Answer: not soluble

Question: Which “soluble on expression in E. coli” value does the source give for “MSLNWKQLISAKRFGMEEFHEERQENRSEFQRDYDRLIFSAPFRRLQNKTQVFPLPGSIFVHNRLTHSLEVSCVGRSLGNDVAKAILERQPELESSFLPEIGSIVSAACLAHDLGNPPFGHSGERAISTFFSEGKGQRLQEKQPDGEQLSPMEWEDLTHFEGNANAFRILTHQFEGRRRGGFVLTYSTLASIVKYPFSSSLAGKKSKFGFFVSEEESYRKIATELGLIQLSEQPLKYARHPLVYLVEAADDICYQMMDIEDAHKLKIITTDETKELLMAFFSEDRQSRLRSTFQIVNDINEQIAYLRSSVIGLLVRECTRVFLEHEQEILAGTFEGALIKHIAEGPAAAYNHCAEISLKRIYRSQDVLDIELAGFRIISTLLELMVDAVTLPGKEKAYSELLTNRVSDQYNIKSPVLYERIQAVLDYISGMTDVFALDLYRKINGNSLPAEGHHHHHH” here?
Answer: soluble

Question: Which “soluble on expression in E. coli” value does the source give for “MAHHHHHHMTAAERLRRSRDNAVHHPKPSAATSSTISPALALSSSNSSPSANAAVPIEISPPPPNQGAVMIRYSKQQLLSLRPAAIEHVMRGRVVDHPPFLKIPESFAPLLSLPFAMEYVNVDAAMQLVEHRSYASRPASSPPTSVARTEDLDDEAQARLYTCPVCAQGRLHSCTAIQHILQRTSRYFMSTKLGAALMQPALVVESLLQLALVFDAKQSSLRLRMLAEQSPRVVHLVEEYLCGEGYHLPLPPVTAHEDWAALNAMLRFDAIRDNKTRVITDLSKHWKKRRTQFEQFVYFFAFRDARPVRPAKNIITKSAKPGMVAMLTGDVPAMVLLHRLGFFIPPDYYWKVFPFLRQALGEGTLSYDVVRHLGLYLSSAQPADMYNPVEVPIHA” here?
Answer: soluble

Question: With “MGSDKIHHHHHHKPGEVWPDDKGVHINAHGGGILRVGDTYYWFGEHKTEGSAGNLAQVGVHCYSSKDLYNWKDEGIALSVVPDDTTSHIVKGCVLERPKVIYNKKNDQYVMWFHLEPRGAGYSGALSGVAVSKNVAGPYSFVNAFRPNAGFWPVNVQELHKQPCTFSADLRFSGGELPAHPDSLNLLGRDQISGQMARDMNLFVDDDGIAYHIYSSEENSTLHISQLTDDYTSYSGKYARFFPGRFMEAPALFKQKGKYYLIMSGCTGWAPNAGRSAVASSIWGPWKELENPFRGENSEVSFYSQSTYVLPVPGHADRFIYMGDRWTPENAIDGRYIWLPIRFEGEQPVIEWRSEWSY” as the sequence, how does the “soluble on expression in E. coli” value read?
Answer: not soluble

Question: For “MGSDKIHHHHHHMHQGAHLDLDDGYQGDISNIGFIIGAKGVAVIDTGGSRQVGEALLSAIREITDLPVLYVINTHIHPDHIFGNAAFKQEHPVFIGHAKLPNAMALRGEAYLRQGQKLLGIQFSESEIIPPTQLVASFQELDIGGRKLLLTAYPNAHTNTDLTVLDETTGTLWTGDLLFIERAPSIDGDIKGWLSAIEDLQKLTGIQLAVPGHGPATQDLQGALSNQARYLNLLLHDVRKAIKQGHSMQQAMESAAASESGHWQLFHEVNRRNVNLIYPVLEWE”, which “soluble on expression in E. coli” value is on record?
Answer: not soluble

Question: Which “soluble on expression in E. coli” value does the source give for “MALITTGSKFLRALEQEGALAVYAPLEGGYEGRYLRRLRSKGYSALTYSARGLGDPAQFLMDIHGVRPPHLGKQTIGNEAAVGRVEYVLPLVGYPLQNLPANAKGLVLWLLEGHVLSPQELSYFVTLPQAEPRLKVVIEMGGDRGFSWQPLAAVAEAALEHHHHHH” here?
Answer: not soluble

Question: With “MSEPLDLNQLAQKIKQWGLELGFQQVGITDTDLSESEPKLQAWLDKQYHGEMDWMARHGMLRARPHELLPGTLRVISVRMNYLPANAAFASTLKNPKLGYVSRYALGRDYHKLLRNRLKKLGEMIQQHCVSLNFRPFVDSAPILERPLAEKAGLGWTGKHSLILNREAGSFFFLGELLVDIPLPVDQPVEEGCGKCVACMTICPTGAIVEPYTVDARRCISYLTIELEGAIPEELRPLMGNRIYGCDDCQLICPWNRYSQLTTEEDFSPRKPLHAPELIELFAWSEEKFLKVTEGSAIRRIGHLRWLRNIAVALGNAPWDETILTALESRKGEHPLLDEHIAWAIAQQIERRNACIVEVQLPKKQRLVRVIEKGLPRDA” as the sequence, how does the “soluble on expression in E. coli” value read?
Answer: soluble
